Test results reported in patent US20240026019A1 (Innovent, published 2024).

T1: cynomolgus monkey TNFR2 overexpressed on CHO-S cells (CHOS-cTNFR2) (cynomolgus monkey, UniProt P20333 23-461 (human entry))
T1 construct: also called cTNFR2 CHO-S
T1 chain: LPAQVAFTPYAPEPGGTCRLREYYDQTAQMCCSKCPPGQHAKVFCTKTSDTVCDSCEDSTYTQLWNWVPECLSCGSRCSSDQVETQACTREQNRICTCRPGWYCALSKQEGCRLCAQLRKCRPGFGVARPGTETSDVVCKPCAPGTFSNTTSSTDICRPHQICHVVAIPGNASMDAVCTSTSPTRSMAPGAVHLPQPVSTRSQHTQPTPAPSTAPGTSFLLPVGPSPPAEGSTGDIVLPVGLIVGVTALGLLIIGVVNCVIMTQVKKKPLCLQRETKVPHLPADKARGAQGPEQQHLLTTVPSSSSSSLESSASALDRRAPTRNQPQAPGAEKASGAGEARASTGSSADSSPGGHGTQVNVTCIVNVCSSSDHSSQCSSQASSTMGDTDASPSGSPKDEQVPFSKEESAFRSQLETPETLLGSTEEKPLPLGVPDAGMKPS

T2: human TNFR2 overexpressed on CHO-S cells (CHOS-hTNFR2) (human, UniProt P20333 23-461)
T2 construct: also called hTNFR2 CHO-S; human TNFR2 molecule overexpressed on CHO-S cells
T2 sequence: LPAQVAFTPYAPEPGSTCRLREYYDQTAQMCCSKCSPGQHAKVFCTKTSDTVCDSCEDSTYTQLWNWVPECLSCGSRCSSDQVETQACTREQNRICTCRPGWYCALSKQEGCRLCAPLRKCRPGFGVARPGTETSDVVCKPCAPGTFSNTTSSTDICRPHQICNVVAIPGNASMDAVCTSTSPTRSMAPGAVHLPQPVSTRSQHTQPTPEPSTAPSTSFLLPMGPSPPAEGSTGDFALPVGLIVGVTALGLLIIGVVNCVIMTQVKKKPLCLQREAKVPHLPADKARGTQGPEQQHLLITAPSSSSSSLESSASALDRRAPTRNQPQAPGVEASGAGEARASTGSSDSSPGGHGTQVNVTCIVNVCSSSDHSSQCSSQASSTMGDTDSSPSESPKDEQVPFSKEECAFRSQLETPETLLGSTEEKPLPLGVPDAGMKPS

T3: hTNFR2 protein (coated on the microplate in the blocking ELISA) (human, UniProt P20333 23-257)
T3 construct: The construct coated in the ELISA is not described (it may or may not be the immunogen, Sino biological 10417-H03H)
T3 sequence (looked up): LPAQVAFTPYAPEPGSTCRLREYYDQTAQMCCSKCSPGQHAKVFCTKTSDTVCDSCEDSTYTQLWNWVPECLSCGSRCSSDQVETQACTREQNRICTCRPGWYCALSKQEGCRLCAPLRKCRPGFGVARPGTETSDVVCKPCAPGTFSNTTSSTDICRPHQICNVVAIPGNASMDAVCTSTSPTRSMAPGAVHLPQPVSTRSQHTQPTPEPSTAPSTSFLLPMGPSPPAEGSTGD


How the values were obtained:
[1] = target: T1, cynomolgus monkey TNFR2 overexpressed …; experiment: flow cytometry on CHO-S cells overexpressing cynomolgus monkey TNFR2 (chimeric antibodies), MFI-FL2-A; unit taken from the axis Conc log(nM)
Protocol: (§1) In the study, the binding of the chimeric antibodies of the present invention, after being diluted in a gradient, to a stable CHO-S cell strain overexpressing human TNFR2 on the surface was assayed by using a flow cytometer. cDNAs encoding human TNFR2 (SEQ ID NO: 60) and cynomolgus monkey TNFR2 (SEQ ID NO: 61) were cloned into pCH01.0 vectors (Invitrogen), which were transfected into CHO-S cells (Invitrogen) to produce CHO-S cells overexpressing human TNFR2 (CHOS-hTNFR2) and CHO-S cells overexpressing cynomolgus monkey TNFR2 (CHOS-cTNFR2).
(§2) CHOS-hTNFR2 cells or CHOS-cTNFR2 cells were counted and diluted to 2×10⁶ cells/mL, and added to a U-bottom 96-well plate at 100 μL/well. The mixture was centrifuged at 300 g for 5 min, and the cell medium was removed. The dilutions of the samples (the chimeric antibodies 3C4, 69B1, and 72G8 and the positive control antibody OPI) (the antibodies were subjected to a three-fold serial dilution in PBS from the maximum antibody concentration of 300 nM) were added to the U-plate, and the cells were resuspended at 100 μL/well and left to stand on ice for 30 min. The suspension was centrifuged at 400 g for 5 min, and the supernatant was removed. The cells were washed twice with PBS. The mixture was centrifuged at 300 g for 5 min, and PBS was removed. […]

[2] = target: T2, human TNFR2 overexpressed on CHO-S …; experiment: flow cytometry on CHO-S cells overexpressing human TNFR2 (chimeric antibodies), MFI-FL2-A; unit taken from the axis Conc log(nM)
Protocol: as §1, §2

[3] = target: T3, hTNFR2 protein (coated on the …); experiment: blocking ELISA: hTNFR2 coated on the plate, binding of biotinylated TNFα blocked by the antibody; unit taken from the axis Conc log(nM) [A]
Protocol: The hTNFR2 protein was resuspended and dissolved to a concentration of 2 μg/mL with PBS, and a microplate was coated with the protein and incubated overnight. The plate was blocked with 5% BSA for 1 h, and a biotinylated antigen (Recombinant Biotinylated TNFα protein (ACRO)) was diluted to 2 μg/mL and added to the plate at 10 μL/well. The antibodies prepared as described above (3C4, 69B1, and 72G8) were each diluted in a gradient starting from the maximum concentration of 300 nM for a total of 8 or 12 dilution gradients. The diluted antibodies were added at 100 μL/well and incubated in PBS on ice for 30 min. The antigen-antibody mixture was incubated in a microplate for 90 min and washed three times with PBS, and the supernatant was discarded. 100 μL of Avidin-HRP (Invitrogen) diluted at a 1:5000 ratio was added to each well, incubated at room temperature for 30 min, and washed six times with PBS. A TMB chromogenic solution (solarbio) was added to the plate at 100 μL/well for color development for 1 min, and the reaction was stopped by adding a stop buffer (solarbio) at 100 μL/well. The plate was read on a microplate reader at OD₄₅₀ and OD₆₂₀.
In a similar manner to that in Example 7, the ability of the humanized antibodies hz3C4.7, hz69b1.5, hz69b1.6, hz69b1.11, and hz69b1.20, and the control antibody OPI to block the binding of human TNFα to hTNFR2 was assayed by ELISA.

EC50 [1] [nM]	EC50 [2] [nM]	IC50 [3] [nM]	Binder
0.355	2	24.2	chimeric antibody 3C4 (antibody, human IgG1, kappa, V domains shown) VH: QVQLQQSGPELVKPGASVTISCKASDYSFTNYYIHWVKQRPGQGLEWIGWIYPGNVITKYHEKFKGKAILTADTSSTTAYMQLNSLTSEDSAVYFCARSRATGYFDYWGQGTTLTVSS VL: DIQMTQTTSSLSASLGDRVTISCRASQDIRNYLNWFQQKPDGTIKLLIYYTSRLHSGVPSRFSGSGSGTDYSLTISNLEQEDMATYFCQQFNTLPWTFGGGTKLEIKR
0.324	3.14	–	chimeric antibody 69B1 (antibody, human IgG1, kappa, V domains shown) VH: QIQLVQSGPELKKPGETVKISCKASGYTFTDYSMNWVKQAPGKGLKWMGWLNTETGEPIYADDFKGRFVFSLETSASTAYLEINNLNDEDTATYFCAREAIYYGTSYVLDYWGQGTSVTVSS VL: DIVLTQSPASLAVSLGQRATISCRASESVEYYGTNFMQWYQQKPGQPPKLLIYSASNVESGVPARFSGSGSGTDFSLNIHPVEEDDIAVYFCQQSRKDPSTFGEGTNLEIKR
–	–	38.2	positive control antibody OPI (humanized antibody SBT-002e in WO 2017083525) (antibody, V domains shown, also called Benchmark OPI) VH: QVTLKESGPALVKPTQTLTLTCTFSGFSLSTSGMGVGWIRQPPGKALEWLAHIWWDDDKFYNPSLKSRLTISKDTSKNQVVLTMTNMDPVDTATYYCARLTGTRYFDYWGQGTTVTVSS VL: DVQMTQSPSSLSASVGDRVTITCKASQDINKFIAWYQQKPGKAPKLLIHYTSTLQPGIPSRFSGSGSGRDYTFTISSLQPEDIATYYCLQYGNLWTFGGGTKVEIK
